Test results reported in PMC9798723.

Key:
[1] = biological target: synthetic Aβ42CC (amyloid-β 1-42 peptide with A21C/A30C mutations) (human); test: SEC-MALS; oligomeric preparations (synthetic Aβ42CC 8 h or 24 h at RT at pH 7.2, or aggregated at RT in PBS at 0.6 mg/mL; recombinant Aβ42CC after concentration or incubation); TSK-GEL G4000SWxl, 20 mM sodium phosphate, 150 mM NaCl, pH 7.4, autosampler 5 °C
[2] = biological target: synthetic Aβ42CC (amyloid-β 1-42 peptide with A21C/A30C mutations) (human); test: SEC-MALS; synthetic Aβ42CC 0.6 mg/mL, 50 min at RT after neutralisation to pH 7.2, then frozen; TSK-GEL G4000SWxl, 20 mM sodium phosphate, 150 mM NaCl, pH 7.4, autosampler 5 °C

oligomer content [1]: > 94%
Substance: synthetic Aβ42CC (amyloid-β 1-42 peptide with A21C/A30C mutations)
percent of the peptide present as 104 kDa oligomers [2]: 20%
